Experimental data from patent US20220411498A1 (JACOBIO PHARMACEUTICALS, published 2022).

What was measured:
[1] = biological target: T1, cyno CD39 on the cell surface (293T/17-cyno CD39 cells) (cyno, UniProt P49961 7-510 (human entry)); assay: flow cytometry on 293T/17-cyno CD39 cells
T1 construct: 293T/17 cells stably transfected with the cyno CD39 gene
T1 chain: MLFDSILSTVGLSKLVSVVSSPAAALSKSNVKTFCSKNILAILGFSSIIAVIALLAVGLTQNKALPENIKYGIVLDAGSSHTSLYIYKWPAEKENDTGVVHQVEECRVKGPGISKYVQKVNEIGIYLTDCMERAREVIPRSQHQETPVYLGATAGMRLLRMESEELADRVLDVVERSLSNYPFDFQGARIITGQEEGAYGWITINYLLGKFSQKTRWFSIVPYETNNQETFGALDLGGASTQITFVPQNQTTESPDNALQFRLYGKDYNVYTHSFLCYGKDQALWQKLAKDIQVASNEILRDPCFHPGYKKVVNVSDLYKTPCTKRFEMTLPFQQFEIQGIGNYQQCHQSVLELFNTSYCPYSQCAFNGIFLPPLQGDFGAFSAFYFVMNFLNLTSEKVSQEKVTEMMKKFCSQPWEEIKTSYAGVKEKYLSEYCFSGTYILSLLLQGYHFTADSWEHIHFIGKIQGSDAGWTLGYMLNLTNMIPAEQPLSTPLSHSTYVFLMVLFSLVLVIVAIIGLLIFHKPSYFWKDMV
Protocol: (§1) Flow cytometry assay: recombinant host cell line 293T/17-huCD39 cells expressing huCD39 and recombinant host cell line 293T/17-cyno CD39 cells expressing cyno CD39 were used to evaluate the binding ability of the chimeric antibody to the natural CD39 protein on the cell surface. The recombinant cells were resuspended in PBS buffer, and 2×10⁶ cells were added to a 96-well U-plate. The chimeric antibody in a certain gradient dilution range incubated for 1h at 4° C. in a refrigerator or on ice, centrifuged at 1500 rpm for 3 min at 4° C., washed three times with PBS buffer, and then incubated for 30 min at 4° C. in the refrigerator or on ice with diluted Alexa Fluor 488-labeled goat anti-human polyclonal antibody (pAb): Goat anti-Human IgG (H+L) Cross-Adsorbed Secondary Antibody, Alexa Fluor 488 (thermo). Finally the cells were washed three times with PBS as described above and analyzed in MACSQuant flow cytometry. GraphPad Prism software was used to generate data plots and count affinity data (FIG. 2). The results are shown in Table 2, and the EC₅₀ values of each chimeric antibody of 293T/17-huCD39 and 293T/17-cyno CD39 was at the level of 10⁻⁹M.

[2] = biological target: T2, huCD39 recombinant protein (human, UniProt P49961 38-478); assay: indirect ELISA, huCD39 recombinant protein coated at 1 ug/mL
T2 construct: the entry is the extracellular domain and ends in a histidine tag; also called soluble huCD39 protein; human CD39 extracellular domain recombinant protein
T2 sequence: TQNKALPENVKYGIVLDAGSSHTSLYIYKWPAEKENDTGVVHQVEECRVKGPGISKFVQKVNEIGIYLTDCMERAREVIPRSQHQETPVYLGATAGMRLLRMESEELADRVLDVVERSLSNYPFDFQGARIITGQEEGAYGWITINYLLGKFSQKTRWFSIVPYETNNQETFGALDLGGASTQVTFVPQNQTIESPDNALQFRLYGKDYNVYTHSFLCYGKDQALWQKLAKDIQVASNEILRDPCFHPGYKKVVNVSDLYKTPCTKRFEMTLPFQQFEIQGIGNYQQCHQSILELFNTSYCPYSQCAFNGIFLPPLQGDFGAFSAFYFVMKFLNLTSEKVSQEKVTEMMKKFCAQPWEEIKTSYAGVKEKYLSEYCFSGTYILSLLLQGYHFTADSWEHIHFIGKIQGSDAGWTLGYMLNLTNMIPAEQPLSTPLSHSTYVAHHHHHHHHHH
Protocol: The Fv region of the four mouse-derived antibodies obtained in Example 1 was fused with the human IgG2 Fc region and constructed into the pcDNA3.1 vector. Then transfected 293F cells to express the antibody proteins, and the antibodies were purified by ProteinA affinity chromatography. […] The next day, the plates were washed 5 times with PBS buffer and blocked with 200 μL/well of 2% skimmed milk powder for 1 h. A certain dose range of chimeric CD39 antibody was incubated for 1 h at room temperature; then washed 5 times with PBST washing buffer (PBS, 0.05% Tween 20). 100 μL of HRP-labeled secondary antibody was added to each well and the plates were incubated for 30 min at room temperature. The plates were washed 5 times again and TMB (Life Technologies) was added for color development for 5 to 10 min. At last, 1N HCl was added to terminate the reaction, and the OD value was measured at 450 nm. GraphPad Prism software was used to generate data plots and the affinity data was counted (FIG. 1).

[3] = biological target: T3, huCD39 on the cell surface (293T/17-huCD39 cells) (human, UniProt P49961 1-510); assay: cell-based or functional assay
T3 sequence (looked up): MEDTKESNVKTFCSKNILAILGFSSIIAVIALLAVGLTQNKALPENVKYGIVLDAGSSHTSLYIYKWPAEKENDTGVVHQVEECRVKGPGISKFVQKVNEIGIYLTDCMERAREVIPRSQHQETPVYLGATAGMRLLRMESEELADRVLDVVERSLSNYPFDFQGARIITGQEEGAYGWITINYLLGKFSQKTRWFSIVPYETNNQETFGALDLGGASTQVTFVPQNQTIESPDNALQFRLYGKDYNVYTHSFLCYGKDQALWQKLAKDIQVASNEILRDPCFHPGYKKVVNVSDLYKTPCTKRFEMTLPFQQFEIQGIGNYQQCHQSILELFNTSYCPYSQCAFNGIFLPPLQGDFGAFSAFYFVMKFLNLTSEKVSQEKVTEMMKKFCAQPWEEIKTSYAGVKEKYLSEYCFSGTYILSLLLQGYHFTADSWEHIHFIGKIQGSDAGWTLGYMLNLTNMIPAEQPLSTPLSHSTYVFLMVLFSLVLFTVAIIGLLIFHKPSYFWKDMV

[4] = biological target: T1, cyno CD39 on the cell surface …; assay: cell-based or functional assay
[5] = biological target: T3, huCD39 on the cell surface …; assay: flow cytometry on 293T/17-huCD39 cells
Protocol: as §1

Binder | Bottom [1] | EC50 [1] [nM] | Top [1] | Bottom [2] [OD450] | EC50 [2] [nM] | Top [2] [OD450] | Blocking of ATPase activity on cell surface (293T/17-huCD39, CellTiter Glo): EC50 [3] [nM] | Blocking of ATPase activity on cell surface (293T/17-huCD39, CellTiter Glo): Top [3] | Blocking of ATPase activity on cell surface (293T/17-cyno CD39, CellTiter Glo): Bottom [4] | Blocking of ATPase activity on cell surface (293T/17-cyno CD39, CellTiter Glo): EC50 [4] [nM] | Blocking of ATPase activity on cell surface (293T/17-cyno CD39, CellTiter Glo): Top [4] | Bottom [5] | EC50 [5] [nM] | Top [5] | Blocking of ATPase activity on cell surface (293T/17-huCD39, CellTiter Glo): Bottom [3]
216 hIgG2 (antibody, V domains shown, Chimeric antibody: mouse Fv fused to the human IgG2 constant region; also called chimeric antibody 216) VH: EVQLVESGGGLVKPGGSLKLPCAASGFTFSDYGMHWVRQAPEKGLEWVAYISSGSSIIYYADTVKGRFTISRDNAKNTLFLQMTSLRSEDTAMYYCARDLYYDHVLDYWGQGTTLTVAS VL: DIQMTQSPSSLSASLGERVSLTCRASQEISGYLIWLQQKPDGTIKRLIYAASTLDSGVPKRFSGNRSGSDYSLTISSLESEDFADYYCLQYASYPRTFGGGTKLEIKR | 1.81 | 11 | 191 | 0.06 | 2.43 | 1.43 | 0.011 | 1.03e+06 | 55600 | 0.024 | 275000 | 2.17 | 5.92 | 151 | 
201 hIgG2 (antibody, V domains shown, Chimeric antibody: mouse Fv fused to the human IgG2 constant region, expressed in 293F cells; also called chimeric antibody 201) VH: EVQLVESGGGLVKPGGSLKLSCAASGFTFSDYGMHWVRQAPEKGLEWVAYISSGSSIMYYADTVKGRFTISRDNAKNTLFLQMASLRSEDTAMYYCARDLYYDHVLDYWGQGTTLTVSS VL: DIQMTQSPSSLSASLGERVSLTCRASQEIRGYLIWLQQKPGGTIKRLIYAASTLDSGVPKRFSGSRSGSDYSLTISSLESEDFADYYCLQYTSYPRTFGGGTKLEIKR | 3.23 | 8.69 | 209 | 0.046 | 1.4 | 1.64 | 0.004 | 871000 | 42300 | 0.014 | 232000 | -6.24 | 6.56 | 189 | 119000
217 hIgG2 (antibody, V domains shown, Chimeric antibody: mouse Fv fused to the human IgG2 constant region) VH: EVQLVESGGGLVKPGGSLKLSCAASGFTFSDYGMHWVRQAPEKGLEWVAYISSGSSVIYYVDTVKGRFTISRDNAKNTLFLQMTSLRSEDTAMYYCARDLYYDHVLDSWGQGTTLTVSS VL: DIQMTQSPSSLSASLGERVSLTCRASQEIGGYLSWLQQKPDGTIKRLIYAASTLDSGVPKRFSGSRSGSDYSLTISSLESEDFADYYCLQYASYPRTFGGGTKLEIKR | 3 | 9.49 | 160 | 0.07 | 4.8 | 1.39 | 0.008 | 1.19e+06 | 42200 | 0.029 | 283000 | 5.8 | 3.8 | 116 | 147000
219 hIgG2 (antibody, V domains shown, Chimeric antibody: mouse Fv fused to the human IgG2 constant region; also called chimeric antibody 219) VH: EVQLVESGGGLVKPGGSLKLSCAASGFTFSDYGMHWVRQAPEKGLEWVAYISSGSSIRYYADTVKGRFTISRDNAKNTLFLQMTSLRSEDTAIYYCARDLYYDHVLDYWGQGTTLTVSS VL: DIQMTQSPSSLSASLGERVSLTCRASQEVSGYLNWLQQKPDGTIKRLIYAASTLDSGVPKRFSGSRSGSDYSLTISSLESEDFADYYCLQYASYPRTFGGGTKVEIKR | 3.33 | 8.16 | 214 | 0.052 | 1.69 | 1.33 | 0.01 | 800000 | 44500 | 0.024 | 303000 | 3.81 | 4.51 | 156 | 172000
